Here are results for seven molecules from PMC8379338, “Structures of heat shock factor trimers bound to DNA” (iScience, 2021).

Data set [1] concerns the molecule itself. As to the kind of experiment: crystal structure; DBD co-crystallised with a sticky-ended three-site HSE DNA duplex (21 bp for HSF2; 23 bp and 24 bp for HSF1); protein:DNA molar ratio 3:1.2; hanging drop, 20°C; three DBD copies on one DNA duplex.
A further data set has as its target HSF2-DBD (Homo sapiens, UniProt Q03933 7-112). As to the kind of experiment: X-ray crystallography; 1.7 A; Co-crystallization at 20 C, hanging drop; protein stock in 20 mM Tris pH 8.0, 150 mM NaCl, 1 mM DTT, 0.2 mM EDTA; DNA annealed in TE; protein:DNA 2:1.5 (2-site) or 3:1.2 (3-site); HSF2 3-site reservoir 0.1 M HEPES pH 7.5, 25% PEG. The conditions noted are these: protein: recombinant; tags: His6 (N-terminal, between MBP and DBD; MBP removed in vivo by TEV protease); chain copies: 2; blunt; self-complementary, 2 copies of the strand.

For the next data set, the target named is HSF1-DBD (Homo sapiens, UniProt Q00613 15-120). As to the kind of experiment: X-ray crystallography; 2.0 A; Co-crystallization at 20 C, hanging drop; protein stock in 20 mM Tris pH 8.0, 150 mM NaCl, 1 mM DTT, 0.2 mM EDTA; DNA annealed in TE; protein:DNA 2:1.5 (2-site) or 3:1.2 (3-site); HSF2 3-site reservoir 0.1 M HEPES pH 7.5, 25% PEG. To be noted: protein: recombinant; tags: His6 (N-terminal, between MBP and DBD; MBP removed in vivo by TEV protease); chain copies: 2; blunt; self-complementary, 2 copies of the strand.

The target in data set [2] is T1, HSF1-DBD trimer (Homo sapiens, UniProt Q00613 15-120). As to the kind of experiment: X-ray crystallography; 2.4 A; Co-crystallization at 20 C, hanging drop; protein stock in 20 mM Tris pH 8.0, 150 mM NaCl, 1 mM DTT, 0.2 mM EDTA; DNA annealed in TE; protein:DNA 2:1.5 (2-site) or 3:1.2 (3-site); HSF2 3-site reservoir 0.1 M HEPES pH 7.5, 25% PEG. To be noted: protein: recombinant; tags: His6 (N-terminal, between MBP and DBD; MBP removed in vivo by TEV protease); chain copies: 3; 22 bp, 5' overhang 1 nt on both strands.

Data set [3] concerns the target T1, HSF1-DBD trimer. As to the kind of experiment: X-ray crystallography; 2.36 A; Co-crystallization at 20 C, hanging drop; protein stock in 20 mM Tris pH 8.0, 150 mM NaCl, 1 mM DTT, 0.2 mM EDTA; DNA annealed in TE; protein:DNA 2:1.5 (2-site) or 3:1.2 (3-site); HSF2 3-site reservoir 0.1 M HEPES pH 7.5, 25% PEG. The conditions noted are these: protein: recombinant; tags: His6 (N-terminal, between MBP and DBD; MBP removed in vivo by TEV protease); chain copies: 3; 23 bp, 5' overhang 1 nt on both strands.

A further data set has as its target HSF2-DBD trimer (Homo sapiens, UniProt Q03933 7-112). As to the kind of experiment: X-ray crystallography; 1.75 A; Co-crystallization at 20 C, hanging drop; protein stock in 20 mM Tris pH 8.0, 150 mM NaCl, 1 mM DTT, 0.2 mM EDTA; DNA annealed in TE; protein:DNA 2:1.5 (2-site) or 3:1.2 (3-site); HSF2 3-site reservoir 0.1 M HEPES pH 7.5, 25% PEG. To be noted: protein: recombinant; tags: His6 (N-terminal, between MBP and DBD; MBP removed in vivo by TEV protease); chain copies: 3; 20 bp, 5' overhang 1 nt on both strands.

B1: DNA-binding domain (DBD) of human heat shock factor 2 (HSF2), residues 7-112 (domain or fragment, UniProt Q03933 7-112, looked up)
chain: VPAFLSKLWTLVEETHTNEFITWSQNGQSFLVLDEQRFAKEILPKYFKHNNMASFVRQLNMYGFRKVVHIDSGIVKQERDGPVEFQHPYFKQGQDDLLENIKRKVS
notes: The His6 tag lies between the TEV site and the DBD; MBP was removed in vivo by co-expressed TEV protease; In the crystals, two or three copies sit on one DNA duplex; also called HSF2-DBD; DBD I; source: E. coli Rosetta2(DE3) carrying pRK603, purified (Ni-NTA, cation exchange, SEC); not shown: MBP, N-terminal, cleaved
Take B1: the binding result in data set [1] is on record as “binds”.

B2: DNA-binding domain (DBD) of human heat shock factor 1 (HSF1), residues 15-120 (domain or fragment, UniProt Q00613 15-120, looked up)
chain: VPAFLTKLWTLVSDPDTDALICWSPSGNSFHVFDQGQFAKEVLPKYFKHNNMASFVRQLNMYGFRKVVHIEQGGLVKPERDDTEFQHPCFLRGQEQLLENIKRKVT
notes: The His6 tag lies between the TEV site and the DBD; MBP was removed in vivo by co-expressed TEV protease; In the crystals, two or three copies sit on one DNA duplex; also called HSF1-DBD; DBD I; source: E. coli Rosetta2(DE3) carrying pRK603, purified (Ni-NTA, cation exchange, SEC); not shown: MBP, N-terminal, cleaved
On to B2, for which, in data set [1], the binding result is “binds”.

B3: 12 bp HtH HSE (dsDNA)
DNA 1: GGGAATATTCCC
DNA 2: GGGAATATTCCC
In the case of B3, in the data set with HSF2-DBD, the binding result is recorded as “binds”.

B4: 14 bp HtH HSE (dsDNA)
DNA 1: GCCGAATATTCGGC
DNA 2: GCCGAATATTCGGC
As for B4, in the data set with HSF1-DBD, the binding result was “binds”.

B5: 23 bp 3-site HSE (dsDNA)
DNA 1: TGGCGTTCTAGAATATTCGCGGA
DNA 2: ATCCGCGAATATTCTAGAACGCC
For the molecule B5, the binding result in the data set with HSF1-DBD trimer [2] is “binds”.

B6: 24 bp 3-site HSE (dsDNA)
DNA 1: TGTGCGTTCTAGAATATTCGCGAG
DNA 2: ACTCGCGAATATTCTAGAACGCAC
As to B6, in the data set with HSF1-DBD trimer [3], the binding result was “binds”.

B7: 21 bp 3-site HSE (dsDNA)
DNA 1: TGCGTTCTAGAATATTCGCGG
DNA 2: ACCGCGAATATTCTAGAACGC
As to B7, in the data set with HSF2-DBD trimer, the binding result is given as “binds”.
